Data on four substances can be found in article PMC2975657.

Several values for one entry are separate records, joined by “and”; a condition that tells them apart may be missing. Equal values may be shown once.

Experiment [1] deals with PA7(LFN)3 complex (heptameric PA oligomer with three LFN) (Bacillus anthracis).
In experiment [2] the target is PA8(LFN)4 complex (octameric PA oligomer with four LFN) (Bacillus anthracis).
The target in experiment [3] is PA7(LFN)3 complex (heptameric PA oligomer with three LFN) (Bacillus anthracis). Briefly: native MS.
In experiment [4] the target is PA8(LFN)4 complex (octameric PA oligomer with four LFN) (Bacillus anthracis). Put plainly: native MS.
In experiment [5] the target is Lethal factor LFN (Bacillus anthracis) (UniProt P15917). Conditions: cited from earlier work.
The target in experiment [6] is protective antigen, proteolytically activated 63-kDa portion (PA63) (Bacillus anthracis). Put plainly: native MS.
The target is the same in experiment [7]. Briefly: negative-stain electron microscopy.

With “soluble monomeric ANTXR2 extracellular domain (msANTXR2), capillary morphogenesis protein 2 residues 40-217 (from UniProt P58335 40-217) (receptor)”, the pH midpoint of the prechannel-to-channel transition, CD signal at 222 nm, 37°C in experiment [1] and in experiment [2] was 5.8 pH throughout. In experiment [3], this substance showed a stoichiometry N (msANTXR2 per PA7(LFN)3 complex) of 7. In experiment [4], this substance gave a stoichiometry N (msANTXR2 per PA8(LFN)4 complex) of 8.

Regarding “Protective antigen (from UniProt P13423)”, in experiment [5], the Kd is 1 nM.

With “LF's PA binding domain (LFN, the first 263 residues of LF) (domain or fragment)”, in experiment [6], the stoichiometry N (LFN per PA2 intermediate) amounted to 1, the stoichiometry N (LFN per PA4 intermediate) came out at 2, the stoichiometry N (LFN per PA7 oligomer) amounted to 3 and the stoichiometry N (LFN per PA8 oligomer) came out at 4.

Consider “protective antigen, proteolytically activated 63-kDa portion (PA63) (domain or fragment)”, for which, in experiment [6], the stoichiometry N was 4 and 2; the stoichiometry N (PA63 per oligomer) was 8 and 7. In addition, the stoichiometry N (PA63 per oligomer) in experiment [7] was 7 and 8.
